Reference: patent publication US20200283483A1 (TECHNISCHE UNIVERSITAET MUENCHEN, published 2020)
Square brackets hold non-standard residues; d marks the D form. dNMeF = CN[C@H](Cc1ccccc1)C(=O)O; NMeA = CN[C@@H](C)C(=O)O

Legend:
human αvβ5-integrin = biological target: T1, human αvβ5-integrin (human, UniProt P06756 31-992; P18084 24-719, limits assumed); assay: solid-phase competition ELISA, soluble αvβ5 on coated vitronectin
T1 construct: soluble integrin bought from Millipore

human αvβ6-Integrin = biological target: T2, human αvβ6-Integrin (human, UniProt P06756 31-992; P18564 22-707); assay: solid-phase competition ELISA, soluble αvβ6 on coated LAP (TGF-β)
T2 construct: soluble integrin bought from R&D

human αvβ3-integrin = biological target: T3, human αvβ3-integrin (human, UniProt P06756 31-992; P05106 27-718); assay: solid-phase competition ELISA, soluble αvβ3 on coated vitronectin
T3 construct: soluble integrin bought from R&D; also called integrin αvβ3
T3 sequence (P06756 31-992 limits assumed, chain 1 of 2): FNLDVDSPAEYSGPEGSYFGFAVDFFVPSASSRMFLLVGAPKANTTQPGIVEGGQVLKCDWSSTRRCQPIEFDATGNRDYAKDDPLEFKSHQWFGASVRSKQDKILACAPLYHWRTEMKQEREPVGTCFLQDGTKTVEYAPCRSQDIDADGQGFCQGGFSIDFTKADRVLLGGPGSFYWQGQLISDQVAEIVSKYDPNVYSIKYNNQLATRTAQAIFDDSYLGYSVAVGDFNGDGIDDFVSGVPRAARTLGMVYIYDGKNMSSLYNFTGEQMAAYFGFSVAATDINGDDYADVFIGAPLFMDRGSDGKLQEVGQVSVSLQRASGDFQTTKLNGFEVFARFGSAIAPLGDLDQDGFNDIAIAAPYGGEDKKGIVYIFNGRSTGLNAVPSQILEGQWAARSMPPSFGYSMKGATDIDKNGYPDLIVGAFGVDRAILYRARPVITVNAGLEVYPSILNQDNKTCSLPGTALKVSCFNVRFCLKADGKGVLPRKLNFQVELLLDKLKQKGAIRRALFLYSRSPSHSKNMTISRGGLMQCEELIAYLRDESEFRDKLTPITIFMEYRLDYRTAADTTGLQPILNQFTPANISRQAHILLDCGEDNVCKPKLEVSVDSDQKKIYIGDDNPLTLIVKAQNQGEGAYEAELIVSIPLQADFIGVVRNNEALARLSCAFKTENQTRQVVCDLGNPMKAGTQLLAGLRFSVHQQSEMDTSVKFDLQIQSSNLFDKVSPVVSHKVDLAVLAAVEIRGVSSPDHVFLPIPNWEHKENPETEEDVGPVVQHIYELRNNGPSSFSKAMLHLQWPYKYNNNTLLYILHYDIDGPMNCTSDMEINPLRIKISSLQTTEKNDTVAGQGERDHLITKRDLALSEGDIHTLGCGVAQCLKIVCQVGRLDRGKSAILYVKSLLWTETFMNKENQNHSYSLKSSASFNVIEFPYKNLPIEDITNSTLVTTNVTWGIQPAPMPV
T3 sequence (P05106 27-718 limits assumed, chain 2 of 2): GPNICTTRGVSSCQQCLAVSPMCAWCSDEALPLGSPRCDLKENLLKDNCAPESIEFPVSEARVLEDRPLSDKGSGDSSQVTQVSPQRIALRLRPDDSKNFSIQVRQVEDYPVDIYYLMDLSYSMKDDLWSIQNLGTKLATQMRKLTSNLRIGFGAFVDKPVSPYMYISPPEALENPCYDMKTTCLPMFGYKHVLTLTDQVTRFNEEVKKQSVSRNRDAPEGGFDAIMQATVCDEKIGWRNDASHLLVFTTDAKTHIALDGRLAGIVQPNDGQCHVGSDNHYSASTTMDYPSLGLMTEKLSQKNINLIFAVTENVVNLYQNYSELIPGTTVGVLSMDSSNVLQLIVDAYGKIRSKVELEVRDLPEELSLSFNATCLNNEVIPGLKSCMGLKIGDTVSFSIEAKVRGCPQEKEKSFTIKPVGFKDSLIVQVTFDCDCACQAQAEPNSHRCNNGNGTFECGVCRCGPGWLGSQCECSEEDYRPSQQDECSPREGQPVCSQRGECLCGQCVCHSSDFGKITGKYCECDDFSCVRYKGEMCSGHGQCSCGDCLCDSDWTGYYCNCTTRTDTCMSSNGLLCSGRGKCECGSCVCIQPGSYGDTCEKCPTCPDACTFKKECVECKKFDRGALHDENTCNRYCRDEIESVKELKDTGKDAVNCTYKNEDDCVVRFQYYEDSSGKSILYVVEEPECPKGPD

T1 sequence (P06756 31-992 limits assumed, chain 1 of 2): as the sequence (P06756 31-992 limits assumed, chain 1 of 2) above
T1 sequence (P18084 24-719 limits assumed, chain 2 of 2): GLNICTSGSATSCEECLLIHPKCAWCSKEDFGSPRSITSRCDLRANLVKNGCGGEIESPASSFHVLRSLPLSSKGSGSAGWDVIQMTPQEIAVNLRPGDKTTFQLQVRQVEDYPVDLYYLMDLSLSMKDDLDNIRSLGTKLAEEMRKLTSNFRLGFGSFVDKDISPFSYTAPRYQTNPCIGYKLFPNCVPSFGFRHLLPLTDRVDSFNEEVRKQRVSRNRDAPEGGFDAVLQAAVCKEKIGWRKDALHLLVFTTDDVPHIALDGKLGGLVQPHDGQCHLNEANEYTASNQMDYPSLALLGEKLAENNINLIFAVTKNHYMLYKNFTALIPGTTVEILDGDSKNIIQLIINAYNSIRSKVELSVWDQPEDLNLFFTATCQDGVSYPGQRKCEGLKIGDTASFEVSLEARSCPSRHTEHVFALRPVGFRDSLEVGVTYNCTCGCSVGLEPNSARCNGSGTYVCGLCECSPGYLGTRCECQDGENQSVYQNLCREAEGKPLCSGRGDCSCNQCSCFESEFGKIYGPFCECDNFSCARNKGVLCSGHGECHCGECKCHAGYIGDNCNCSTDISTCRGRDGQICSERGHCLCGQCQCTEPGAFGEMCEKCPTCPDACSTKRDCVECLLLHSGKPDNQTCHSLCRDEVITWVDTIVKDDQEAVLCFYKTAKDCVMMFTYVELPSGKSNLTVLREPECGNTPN
T2 sequence (P06756 31-992 limits assumed, chain 1 of 2): as the sequence (P06756 31-992 limits assumed, chain 1 of 2) above
T2 sequence (P18564 22-707 limits assumed, chain 2 of 2): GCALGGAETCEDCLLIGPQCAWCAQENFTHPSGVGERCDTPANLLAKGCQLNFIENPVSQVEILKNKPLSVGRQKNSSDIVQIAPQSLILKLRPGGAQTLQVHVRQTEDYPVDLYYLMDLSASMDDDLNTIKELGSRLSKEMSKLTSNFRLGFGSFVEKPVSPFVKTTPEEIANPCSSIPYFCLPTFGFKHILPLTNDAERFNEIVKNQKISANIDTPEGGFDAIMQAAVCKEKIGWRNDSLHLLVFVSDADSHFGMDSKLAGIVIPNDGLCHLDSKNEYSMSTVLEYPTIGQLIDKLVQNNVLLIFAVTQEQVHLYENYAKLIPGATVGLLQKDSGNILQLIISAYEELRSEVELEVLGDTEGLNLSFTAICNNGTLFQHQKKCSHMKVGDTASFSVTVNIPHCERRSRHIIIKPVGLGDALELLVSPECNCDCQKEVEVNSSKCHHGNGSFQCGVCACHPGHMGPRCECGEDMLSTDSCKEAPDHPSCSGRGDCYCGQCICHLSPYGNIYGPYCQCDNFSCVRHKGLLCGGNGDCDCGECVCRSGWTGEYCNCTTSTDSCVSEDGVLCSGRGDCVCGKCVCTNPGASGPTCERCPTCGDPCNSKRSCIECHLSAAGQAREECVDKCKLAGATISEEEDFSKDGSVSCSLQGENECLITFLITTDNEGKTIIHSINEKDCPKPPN

B1: peptide #30 c(*fRGDA*A) (peptide)
peptide: cyclo([dNMeF]RGDA[NMeA])
notes: scaffold NMe(1,6)
Which results are given for B1?
IC50 (human αvβ5-integrin): 145 nM; IC50 (human αvβ6-Integrin): 120 nM; IC50 (human αvβ3-integrin): 0.6 nM
